Test results reported in US20120040375A1 (NATIONAL UNIVERSITY CORPORATION HOKKAIDO UNIVERSITY, published 2012).

Legend:
[1] = target: T1, biotin-labeled T-47D culture supernatant (MUC1) (human, UniProt P15941 24-1097, limits assumed, biotin-labeled with Sulfo-NHS-Biotin); assay: SPR, Biacore, biotin-labeled T-47D culture supernatant on sensor chip SA
T1 construct: The whole concentrated supernatant was biotinylated and put on the chip

Biotin-Tn(DT*R)-100 = target: T2, Biotin-Tn(DT*R)-100 (N-terminal Biotin-PEG-linker; Thr(GalNAcα) in each Asp-Thr-Arg (5 sites); C-terminal amide (NH2)); assay: SPR, Biacore T100, Biotin-Tn(DT*R)-100 on sensor chip SA
T2 construct: also called Compound No. 21; Compound 21
T2 sequence (peptide, as listed by the source limits assumed): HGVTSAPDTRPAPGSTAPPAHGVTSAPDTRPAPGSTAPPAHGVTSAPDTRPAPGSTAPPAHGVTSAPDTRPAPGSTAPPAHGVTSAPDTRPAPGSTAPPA

T1 sequence (P15941 24-1097 limits assumed): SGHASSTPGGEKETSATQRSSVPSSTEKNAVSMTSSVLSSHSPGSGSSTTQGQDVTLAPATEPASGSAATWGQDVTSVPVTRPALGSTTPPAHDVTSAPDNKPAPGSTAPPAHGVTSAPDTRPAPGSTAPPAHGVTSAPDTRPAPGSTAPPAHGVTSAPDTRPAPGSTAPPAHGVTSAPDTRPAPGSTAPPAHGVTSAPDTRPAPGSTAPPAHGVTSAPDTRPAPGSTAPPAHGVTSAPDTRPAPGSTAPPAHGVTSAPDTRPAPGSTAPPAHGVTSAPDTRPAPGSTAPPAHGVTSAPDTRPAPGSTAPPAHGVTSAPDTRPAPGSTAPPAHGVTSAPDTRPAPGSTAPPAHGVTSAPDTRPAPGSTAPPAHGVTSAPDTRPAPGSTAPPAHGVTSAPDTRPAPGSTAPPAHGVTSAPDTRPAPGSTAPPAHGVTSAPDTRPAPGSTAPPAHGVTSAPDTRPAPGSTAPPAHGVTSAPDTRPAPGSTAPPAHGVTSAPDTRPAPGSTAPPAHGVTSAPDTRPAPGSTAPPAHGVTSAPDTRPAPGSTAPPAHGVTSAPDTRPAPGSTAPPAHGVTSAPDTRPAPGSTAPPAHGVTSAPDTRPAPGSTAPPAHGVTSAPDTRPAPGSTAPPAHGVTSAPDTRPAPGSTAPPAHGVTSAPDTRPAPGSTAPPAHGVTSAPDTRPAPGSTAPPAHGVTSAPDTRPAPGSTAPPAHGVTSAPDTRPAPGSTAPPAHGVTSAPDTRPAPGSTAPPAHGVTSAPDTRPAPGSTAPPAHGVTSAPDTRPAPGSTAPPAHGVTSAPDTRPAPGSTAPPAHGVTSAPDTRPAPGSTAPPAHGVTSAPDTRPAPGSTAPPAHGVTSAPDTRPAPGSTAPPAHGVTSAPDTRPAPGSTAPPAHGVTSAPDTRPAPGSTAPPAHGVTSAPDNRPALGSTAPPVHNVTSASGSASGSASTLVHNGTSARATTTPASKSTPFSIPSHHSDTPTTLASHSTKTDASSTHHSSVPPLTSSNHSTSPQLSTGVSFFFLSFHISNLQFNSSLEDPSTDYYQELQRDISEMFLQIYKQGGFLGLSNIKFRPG

B1: PankoMab (antibody, V domains shown)
VH: EVQLVESGGGLVQPGGSMRLSCVASGFPFSNYWMNWVRQAPGKGLEWVGEIRLKSNNYTTHYAESVKGRFTISRDDSKNSLYLQMNSLKTEDTAVYYCTRHYYFDYWGQGTLVTVSS
VL: DIVMTQSPLSNPVTPGEPASISCRSSKSLLHSNGITYFFWYLQKPGQSPQLLIYQMSNLASGVPDRFSGSGSGTDFTLRISRVEAEDVGVYYCAQNLELPPTFGQGTKVEIKR
Q: What does the source list for B1?
A: Kd [1]: 100 nM; koff [1]: 0.045 s⁻¹; kon [1]: 440000 M⁻¹ s⁻¹; Kd (Biotin-Tn(DT*R)-100): 1500 nM; koff (Biotin-Tn(DT*R)-100): 0.19 s⁻¹; kon (Biotin-Tn(DT*R)-100): 120000 M⁻¹ s⁻¹
